From PMC8265659

Key:
[1] = target: T1, PorX-C-His6 (Porphyromonas gingivalis (33277?)) (UniProt B2RJJ3); experiment: EMSA; conditions: EMSA: 10 mM Tris-HCl pH 7.5, 1 mM EDTA, 5 mM DTT, 10 mM NaCl, 1 mM MgCl2, 5% glycerol, room temperature, 30 min
T1 sequence: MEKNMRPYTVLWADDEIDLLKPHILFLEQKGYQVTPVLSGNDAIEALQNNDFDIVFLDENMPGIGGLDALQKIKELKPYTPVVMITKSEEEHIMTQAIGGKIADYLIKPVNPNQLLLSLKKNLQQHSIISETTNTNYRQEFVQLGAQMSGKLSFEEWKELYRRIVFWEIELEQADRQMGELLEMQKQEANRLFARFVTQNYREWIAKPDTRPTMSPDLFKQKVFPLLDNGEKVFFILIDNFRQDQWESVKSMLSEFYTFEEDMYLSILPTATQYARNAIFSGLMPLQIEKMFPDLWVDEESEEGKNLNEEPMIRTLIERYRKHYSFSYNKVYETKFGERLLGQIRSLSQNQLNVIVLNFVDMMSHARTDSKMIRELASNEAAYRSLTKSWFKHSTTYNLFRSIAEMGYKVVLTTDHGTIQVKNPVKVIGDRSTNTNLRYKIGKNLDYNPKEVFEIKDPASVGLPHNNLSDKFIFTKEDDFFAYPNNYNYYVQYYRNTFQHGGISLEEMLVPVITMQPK

[2] = target: T1, PorX-C-His6 (Porphyromonas gingivalis (33277?)); experiment: DNase I footprinting; conditions: EMSA: 10 mM Tris-HCl pH 7.5, 1 mM EDTA, 5 mM DTT, 10 mM NaCl, 1 mM MgCl2, 5% glycerol, room temperature, 30 min

For “CCGAGTACGTTTACCCCGGCCCGATACAGTTCTTCGGCCCCGAACATGTATGCGATAGCCCCACGATGACACTCCGCTTGGAAAAGAACGATCGCTGACTCTTCCGCTGCATTAGTCGGGTTGATAAGCAGTTGCTTCTGTTTGTTTTGTCGAAAAAAATGTTTTTCTTTGCAATAAGTCTCATTTAAAAGAATCGCCTATCGACGCATATCTACCTTCTGAACAATAAATAAAGAGGATTCTCCTATGAGCAGTTTCCACAAGCTGACTGATGA (double strand) [T1 sigP promoter fragment (275 bp)]”, the binding [1] was “binds” and the binding [2] was “binds”.
